According to patent US20120108492A1, “LIGAND-SPECIFIC NON-ANTIBODY COMPOUNDS THAT INHIBIT CR2 ACTIVATION AND METHODS OF USE THEREOF” (The Regents of the University of Colorado, priority 2008, published 2012):
Substitutions are numbered along the chain they refer to. Names and notes keep the numbering of the source.

B1: R28A: single-site mutant of recombinant MBP-CR2 SCR1-2 (protein)
chain: ISCGSPPPILNGRISYYSTPIAVGTVIAYSCSGTFRLIGEKSLLCITKDKVDGTWDKPAPKCEYFNKYSSCPEPIVPGGYKIRGSTPYRHGDSVTFACKTNFSMNGNKSVWCQANNMWGPTRLPTCVSVFPLE
modifications: left off: large carriers; small tags and cut ends
B2: R83A: single-site mutant of recombinant MBP-CR2 SCR1-2 (protein)
chain: B1 chain with A28R, R83A
modifications: left off: large carriers; small tags and cut ends
B3: Y16A: single-site mutant of recombinant MBP-CR2 SCR1-2 (protein)
chain: B1 chain with Y16A, A28R
modifications: left off: large carriers; small tags and cut ends
B4: K57A: single-site mutant of recombinant MBP-CR2 SCR1-2 (protein)
chain: B1 chain with A28R, K57A
modifications: left off: large carriers; small tags and cut ends
B5: K67A: single-site mutant of recombinant MBP-CR2 SCR1-2 (protein)
chain: B1 chain with A28R, K67A
modifications: left off: large carriers; small tags and cut ends
B6: K41A: single-site mutant of recombinant MBP-CR2 SCR1-2 (protein)
chain: B1 chain with A28R, K41A
modifications: left off: large carriers; small tags and cut ends
B7: R89A: single-site mutant of recombinant MBP-CR2 SCR1-2 (protein)
chain: B1 chain with A28R, R89A
modifications: left off: large carriers; small tags and cut ends
B8: S15P: single-site mutant of recombinant MBP-CR2 SCR1-2 (protein)
chain: B1 chain with S15P, A28R
modifications: left off: large carriers; small tags and cut ends
B9: L10A: single-site mutant of recombinant MBP-CR2 SCR1-2 (protein)
chain: B1 chain with L10A, A28R
modifications: left off: large carriers; small tags and cut ends

Tested on: anti-CR2 SCR1-2 monoclonal antibody 171
Test: MBP-CR2 SCR1-2-171 mAb ELISA
Type: binding
Conditions: mutant MBP-CR2 SCR1-2 relative to wild-type
Experimental: See Asokan et al. (2006) J Immunol 177:383-94; Guthridge et al. (2001) J Immunol 167:5758-66; Young et al. (2007) J Biol Chem 282:36614-36625. […] Hannan et al. (2005) J Mol Biol 346:845-58; and Young et al. (2007) J Biol Chem 282:36614-36625.
(§1) After coating, the plates were blocked using 0.1% BSA in a PBS solution, pH 7.4 for one hour at room temperature. The plates were then washed, and incubated with either wild-type or mutant MBP-CR2 SCR1-2, at concentrations ranging from 0.03125-2.0 μg/ml in PBS for one hour at room temperature. After further washing, wild-type or mutant MBP-CR2 binding was detected using commercially available horseradish peroxidase-conjugated anti-MBP mAb (New England Biolabs) according to the manufacturer's instructions.

Molecule | Weighting (171 mAb)
B1 | ++++ (++++>90%)
B2 | ++++ (++++>90%)
B3 | +++ (+++89.9-70%)
B4 | ++++ (++++>90%)
B5 | +++ (+++89.9-70%)
B6 | ++++ (++++>90%)
B7 | ++++ (++++>90%)
B8 | ++++ (++++>90%)
B9 | ++++ (++++>90%)

Same assay, conditions: mutant MBP-CR2 SCR1-2 relative to wild-type; plate-bound 171 mAb

Molecule | % 171 mAb Binding
B1 | 103.5%
B2 | 96.9%
B3 | 81.4%
B4 | 91.9%
B5 | 87.7%
B6 | 97.3%
B7 | 93.9%
B8 | 108.5%
B9 | 94.7%

Molecular target: T1, EBV gp350 (Epstein-Barr virus, UniProt P03200)
T1 sequence (P03200 1-470): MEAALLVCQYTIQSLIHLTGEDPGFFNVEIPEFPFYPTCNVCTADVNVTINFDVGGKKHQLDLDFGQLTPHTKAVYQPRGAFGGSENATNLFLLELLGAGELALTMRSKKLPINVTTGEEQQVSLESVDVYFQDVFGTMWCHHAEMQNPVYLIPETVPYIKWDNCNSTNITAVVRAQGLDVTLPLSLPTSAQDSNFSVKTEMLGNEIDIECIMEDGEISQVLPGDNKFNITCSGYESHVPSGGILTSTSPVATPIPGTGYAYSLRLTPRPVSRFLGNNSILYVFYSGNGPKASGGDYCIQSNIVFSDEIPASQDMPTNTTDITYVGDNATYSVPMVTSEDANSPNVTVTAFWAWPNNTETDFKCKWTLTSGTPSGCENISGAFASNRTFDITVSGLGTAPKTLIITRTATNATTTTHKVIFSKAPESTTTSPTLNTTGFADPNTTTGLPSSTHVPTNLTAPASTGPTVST
Test: not given
Conditions: previously observed cell-binding study; mutant CR2 relative to wild-type; cited from earlier work

Molecule | EBV gp350 binding
B3 | 66.7%

Tested on: anti-CR2 SCR1-2 mAb 629
Test: MBP-CR2 SCR1-2-629 mAb ELISA
Type: binding
Conditions: mutant MBP-CR2 SCR1-2 relative to wild-type
From the text: The excellent correlation observed between our cell-binding studies and the ELISA analyses provides proof-of-principle that the MBP-CR2 SCR1-2 ELISA is an effective means of characterizing CR2-ligand interactions. […] See Asokan et al. (2006) J Immunol 177:383-94; Guthridge et al. (2001) J Immunol 167:5758-66; Young et al. (2007) J Biol Chem 282:36614-36625. […] This epitope overlaps extensively with the binding surface on CR2 described above for EBV gp350, and also with the previously described binding sites for C3dg and C3d. Hannan et al. (2005) J Mol Biol 346:845-58; and Young et al. (2007) J Biol Chem 282:36614-36625.
as §1

Molecule | Weighting (629 mAb)
B1 | ++++ (++++>90%)
B2 | ++++ (++++>90%)
B3 | ++++ (++++>90%)
B4 | +++ (+++89.9-70%)
B5 | ++++ (++++>90%)
B6 | ++++ (++++>90%)
B7 | +++ (+++89.9-70%)
B8 | ++++ (++++>90%)
B9 | ++++ (++++>90%)

Same assay, conditions: mutant MBP-CR2 SCR1-2 relative to wild-type; plate-bound 629 mAb

Molecule | % 629 mAb Bindng
B1 | 103.1%
B2 | 94.4%
B3 | 154.4%
B4 | 85.5%
B5 | 107.2%
B6 | 97.5%
B7 | 87.7%
B8 | 91.7%
B9 | 113.2%

Molecular target: T1, EBV gp350
Test: MBP-CR2 SCR1-2 mutant-EBV gp350 ELISA
Type: binding
Parameters: DNA corresponding to residues 1-470 of EBV gp350/220; E. coli biotin carboxyl carrier protein (BCCP) fragment, residues 70-156; hexa-histidine (C); made in house; host or cells: human embryonic kidney 293f freestyle cells (pSecTag2/Hygro B)
Conditions: mutant CR2 relative to wild-type CR2
Experimental: See Martin et al. (1991) J Exp Med 174:1299-311; Young et al. (2007) J Biol Chem 282:36614-36625; Guthridge et al. (2001) Biochemistry 40:5931-41; and Sarrias et al. (2001) J Immunol 167:1490-9. […] Young et al. (2007) J Biol Chem 282:36614-36625.
as §1

Molecule | EBV gp350 binding
B3 | 95.1%

Same assay, conditions: mutant MBP-CR2 SCR1-2

Molecule | EBV gp350 binding relative to wild-type CR2
B1 | significantly decreased capacity
B2 | decreased binding affinities for EBV gp350
B3 | failed to inhibit EBV gp350 binding
B4 | significantly decreased capacity
B6 | significantly decreased capacity
B7 | decreased binding affinities for EBV gp350
B8 | major reduction in EBV gp350 binding
B9 | failed to inhibit EBV gp350 binding

Same assay, conditions: reduction relative to wild-type MBP-CR2 SCR1-2

Molecule | decrease in EBV gp350 binding
B5 | approximately 20%
